Results reported in patent US6960559 (UNIVERSITY OF ZURICH, dated 2005).
The star is where a group is joined. Cbz = O=C(OCc1ccccc1)*

B1: cbz-AFY-NH2 (peptide)
peptide: Cbz-Ala-Phe-Tyr-NH2
SMILES: C[C@H](NC(=O)OCc1ccccc1)C(=O)N[C@@H](Cc1ccccc1)C(=O)N[C@@H](Cc1ccc(O)cc1)C(N)=O
B2: carbobenzoxy-Phe-Ala-Phe-Tyr-amide (peptide)
peptide: Cbz-FAFY-NH2
SMILES: C[C@H](NC(=O)[C@H](Cc1ccccc1)NC(=O)OCc1ccccc1)C(=O)N[C@@H](Cc1ccccc1)C(=O)N[C@@H](Cc1ccc(O)cc1)C(N)=O

target: T1, C6 plasma membrane associated metalloendoprotease (rat C6 glioblastoma cells) (rat); experiment: cell-based or functional assay

Binder	IC50 of C6 cell spreading on CNS myelin [µM]
Cbz-Gly-Phe-Phe-OMe (SMILES COC(=O)[C@H](Cc1ccccc1)NC(=O)[C@H](Cc1ccccc1)NC(=O)CNC(=O)OCc1ccccc1) [cbz-GFF-OCH3]	5
Cbz-Gly-Leu-Phe-NH2 (SMILES CC(C)C[C@H](NC(=O)CNC(=O)OCc1ccccc1)C(=O)N[C@@H](Cc1ccccc1)C(N)=O) [cbz-GLF-NH2]	5

target: T1, C6 plasma membrane associated …; experiment: cell-based or functional assay; remark: another data set of the same source

Binder	IC50 on CNS myelin [µM], half maximal inhibition of C6 cell spreading [µM]
H-FAFY-NH2 [FAFY-NH2]	300
Cbz-Gly-Phe-Phe-NH2 (SMILES NC(=O)[C@H](Cc1ccccc1)NC(=O)[C@H](Cc1ccccc1)NC(=O)CNC(=O)OCc1ccccc1) [Carbobenzoxy-Gly-Phe-Phe-amide]	8
B1	20
H-Ala-Phe-Tyr-NH2 [AFY-NH2]	1000
Cbz-Tyr-Tyr-OH (SMILES O=C(N[C@@H](Cc1ccc(O)cc1)C(=O)N[C@@H](Cc1ccc(O)cc1)C(=O)O)OCc1ccccc1) [carbobenzoxy-tyrosine-tyrosine]	300
B2	3
Cbz-Gly-Phe-NH2 (SMILES NC(=O)[C@H](Cc1ccccc1)NC(=O)CNC(=O)OCc1ccccc1) [carbobenzoxy-Gly-Phe-amide]	600
Cbz-Phe-Ala-NH2 (SMILES C[C@H](NC(=O)[C@H](Cc1ccccc1)NC(=O)OCc1ccccc1)C(N)=O) [cbz-FA-NH2]	600
Cbz-Gly-Phe-Phe-OH (SMILES O=C(CNC(=O)OCc1ccccc1)N[C@@H](Cc1ccccc1)C(=O)N[C@@H](Cc1ccccc1)C(=O)O) [cbz-GFF]	300
Cbz-Ala-Phe-NH2 (SMILES C[C@H](NC(=O)OCc1ccccc1)C(=O)N[C@@H](Cc1ccccc1)C(N)=O) [cbz-AF-NH2]	600
